Experimental data taken from EP2078752A2 (LUDWIG INSTITUTE FOR CANCER RESEARCH, dated 2009).

What was measured:
Experiment in all cases: affinity cross-linking of 125I-activin A then immunoprecipitation, COS-1 cells co-transfected with ActR-II
mouse ALK-6 (clone ME-6) = molecular target: T1, mouse ALK-6 (clone ME-6) (mouse, UniProt P36898 14-502)
T1 construct: Expressed from cDNA in COS-1 cells; also called mALK-6; BMPR-IB

[1] = molecular target: T2, human ALK-5 (clone EMBLA), TGF-β type I receptor (human, UniProt P36897 25-503)
T2 construct: Expressed from cDNA in COS-1 cells and PAE cells (PAE/TβR-I), or endogenous in human cell lines and HUVEC; also called hALK-5; TβR-I
T2 sequence: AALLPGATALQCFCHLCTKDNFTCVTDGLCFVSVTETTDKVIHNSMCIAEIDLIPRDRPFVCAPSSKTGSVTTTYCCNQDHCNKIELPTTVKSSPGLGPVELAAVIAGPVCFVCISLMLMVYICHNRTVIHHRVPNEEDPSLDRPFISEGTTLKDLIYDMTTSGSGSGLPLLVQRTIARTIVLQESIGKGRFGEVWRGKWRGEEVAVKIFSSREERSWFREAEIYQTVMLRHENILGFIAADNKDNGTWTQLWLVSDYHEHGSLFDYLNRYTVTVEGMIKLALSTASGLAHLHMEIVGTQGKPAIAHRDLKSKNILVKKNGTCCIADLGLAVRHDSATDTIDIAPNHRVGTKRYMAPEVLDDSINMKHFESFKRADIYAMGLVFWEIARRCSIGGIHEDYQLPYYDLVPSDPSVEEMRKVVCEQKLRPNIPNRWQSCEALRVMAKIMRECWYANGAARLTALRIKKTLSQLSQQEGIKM

human ALK-1 (clone HP57) = molecular target: T3, human ALK-1 (clone HP57) (human, UniProt P37023 22-503)
T3 construct: Expressed from cDNA in COS-1 cells, or endogenous in HUVEC; also called hALK-1
T3 sequence (P37023 22-503 S172T limits assumed): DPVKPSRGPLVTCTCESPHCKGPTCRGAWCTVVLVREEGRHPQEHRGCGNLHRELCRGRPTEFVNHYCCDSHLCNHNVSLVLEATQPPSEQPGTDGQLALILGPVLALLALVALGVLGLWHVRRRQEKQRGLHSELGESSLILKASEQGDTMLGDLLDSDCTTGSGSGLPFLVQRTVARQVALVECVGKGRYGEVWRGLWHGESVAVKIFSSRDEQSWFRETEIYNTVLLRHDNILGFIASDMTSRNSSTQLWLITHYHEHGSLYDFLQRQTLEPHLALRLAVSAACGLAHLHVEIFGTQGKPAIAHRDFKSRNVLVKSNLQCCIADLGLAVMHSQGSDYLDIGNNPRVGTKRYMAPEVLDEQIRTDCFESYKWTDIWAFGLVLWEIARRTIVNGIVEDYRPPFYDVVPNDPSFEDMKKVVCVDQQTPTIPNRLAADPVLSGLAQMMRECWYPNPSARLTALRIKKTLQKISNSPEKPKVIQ

T1 sequence (P36898 14-502 limits assumed): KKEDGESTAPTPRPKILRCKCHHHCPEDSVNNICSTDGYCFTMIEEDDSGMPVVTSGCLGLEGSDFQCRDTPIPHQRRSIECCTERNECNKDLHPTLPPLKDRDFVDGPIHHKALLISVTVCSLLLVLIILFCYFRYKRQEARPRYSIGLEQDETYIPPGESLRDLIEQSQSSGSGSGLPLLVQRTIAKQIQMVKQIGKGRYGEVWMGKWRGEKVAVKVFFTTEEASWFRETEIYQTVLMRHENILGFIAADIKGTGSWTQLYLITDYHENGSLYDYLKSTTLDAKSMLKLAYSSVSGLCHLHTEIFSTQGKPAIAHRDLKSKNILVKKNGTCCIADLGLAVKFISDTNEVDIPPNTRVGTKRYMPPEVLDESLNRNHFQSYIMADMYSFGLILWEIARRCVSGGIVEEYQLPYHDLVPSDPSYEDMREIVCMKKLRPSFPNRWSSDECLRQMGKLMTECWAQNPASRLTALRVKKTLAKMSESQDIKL

- binding result (mouse ALK-6 (clone ME-6)): binds
- binding result [1]: binds
- binding result (human ALK-1 (clone HP57)): binds
B1: recombinant human activin A, iodinated (^125I-activin A) (ligand, UniProt P08476 311-426, looked up)
chain: GLECDGKVNICCKKQFFVSFKDIGWNDWIIAPSGYHANYCEGECPSHIAGTSGSSLSFHSTVINHYRMRGHSPFANLKSCCVPTKLRPMSMLYYDDGQNIIKKDIQNMIVEECGCS
modifications: 125I-iodinated by the chloramine T method
notes: Recombinant ligand
